Values of other authors as cited in PMC3625564.

Molecular target: Endocan (Homo sapiens) (UniProt Q9NQ30)
Test: biosensor

Chain of UniProt Q9NQ30 (Q9NQ30 20-184): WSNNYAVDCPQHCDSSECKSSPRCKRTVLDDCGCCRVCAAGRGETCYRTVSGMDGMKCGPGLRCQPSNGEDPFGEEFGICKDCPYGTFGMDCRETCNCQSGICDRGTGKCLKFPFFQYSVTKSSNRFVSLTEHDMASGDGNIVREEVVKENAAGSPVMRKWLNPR

In the case of HGF (from UniProt P14210), the Kd is given as 4.5 nM.
